Residue numbers refer to the chain shown, from its start. Numbers in names are those of the source.
T1: Human CD3eg linker (human)
T1 construct: single-chain construct; also called recombinant human CD3
T1 chain: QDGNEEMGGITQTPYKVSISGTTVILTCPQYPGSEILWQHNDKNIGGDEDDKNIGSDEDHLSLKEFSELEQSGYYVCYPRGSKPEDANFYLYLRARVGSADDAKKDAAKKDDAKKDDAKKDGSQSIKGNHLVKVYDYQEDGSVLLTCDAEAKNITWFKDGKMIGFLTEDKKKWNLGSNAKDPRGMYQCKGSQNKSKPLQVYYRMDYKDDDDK

B1: dBBDu183H G100hN/dBBDu072L (antibody, name in Kabat numbering, V domains shown)
VH: QVQLVESGGGLVQPGRSLRLSCAASGFTFSNAWMHWVRQAPGKGLEWVAQIKDKGNAYAAYYAPSVKGRFTISRDDSKNSIYLQMNSLKTEDTAVYYCHYVHYASASTVLPAFNVDAWGQGTTVTVSS
VL: DIVMTQSPLSLPVTPGEPASISCQASQELVHMNRNTYLHWYQQKPGQAPRLLIYKVSNRFPGVPDRFSGSGSGTDFTLKISRVEAEDVGVYYCAQGTSVPFTFGQGTKLEIK
B2: dBBDu183H G100hV/dBBDu072L (antibody, name in Kabat numbering, V domains shown)
VH: B1 VH with N114V
VL: B1 VL
B3: dBBDu183H H93V/dBBDu072L (antibody, name in Kabat numbering, V domains shown)
VH: B1 VH with H99V, N114G
VL: B1 VL
B4: dBBDu183H H96D/dBBDu072L (antibody, name in Kabat numbering, V domains shown)
VH: B1 VH with H102D, N114G
VL: B1 VL
B5: dBBDu183H K64R/dBBDu072L (antibody, name in Kabat numbering, V domains shown)
VH: B1 VH with K67R, N114G
VL: B1 VL
B6: dBBDu183H G100hW/dBBDu072L (antibody, name in Kabat numbering, V domains shown)
VH: B1 VH with N114W
VL: B1 VL
B7: dBBDu183H G100hY/dBBDu072L (antibody, name in Kabat numbering, V domains shown)
VH: B1 VH with N114Y
VL: B1 VL
B8: dBBDu183H H96F/dBBDu072L (antibody, name in Kabat numbering, V domains shown)
VH: B1 VH with H102F, N114G
VL: B1 VL
B9: dBBDu183H H93D/dBBDu072L (antibody, name in Kabat numbering, V domains shown)
VH: B1 VH with H99D, N114G
VL: B1 VL
B10: dBBDu183H H96W/dBBDu072L (antibody, name in Kabat numbering, V domains shown)
VH: B1 VH with H102W, N114G
VL: B1 VL
B11: dBBDu183H H93W/dBBDu072L (antibody, name in Kabat numbering, V domains shown)
VH: B1 VH with H99W, N114G
VL: B1 VL
B12: dBBDu183H H93T/dBBDu072L (antibody, name in Kabat numbering, V domains shown)
VH: B1 VH with H99T, N114G
VL: B1 VL
B13: dBBDu183H H96Q/dBBDu072L (antibody, name in Kabat numbering, V domains shown)
VH: B1 VH with H102Q, N114G
VL: B1 VL
B14: dBBDu183H H96N/dBBDu072L (antibody, name in Kabat numbering, V domains shown)
VH: B1 VH with H102N, N114G
VL: B1 VL
B15: dBBDu183H K64G/dBBDu072L (antibody, name in Kabat numbering, V domains shown)
VH: B1 VH with K67G, N114G
VL: B1 VL
B16: dBBDu183H H96S/dBBDu072L (antibody, name in Kabat numbering, V domains shown)
VH: B1 VH with H102S, N114G
VL: B1 VL
B17: dBBDu183H H96R/dBBDu072L (antibody, name in Kabat numbering, V domains shown)
VH: B1 VH with H102R, N114G
VL: B1 VL
B18: dBBDu183H K64E/dBBDu072L (antibody, name in Kabat numbering, V domains shown)
VH: B1 VH with K67E, N114G
VL: B1 VL
B19: dBBDu183H H96T/dBBDu072L (antibody, name in Kabat numbering, V domains shown)
VH: B1 VH with H102T, N114G
VL: B1 VL
B20: dBBDu183H H96Y/dBBDu072L (antibody, name in Kabat numbering, V domains shown)
VH: B1 VH with H102Y, N114G
VL: B1 VL
B21: dBBDu183H K64H/dBBDu072L (antibody, name in Kabat numbering, V domains shown)
VH: B1 VH with K67H, N114G
VL: B1 VL
B22: dBBDu183H H96E/dBBDu072L (antibody, name in Kabat numbering, V domains shown)
VH: B1 VH with H102E, N114G
VL: B1 VL
B23: dBBDu183H G100hS/dBBDu072L (antibody, name in Kabat numbering, V domains shown)
VH: B1 VH with N114S
VL: B1 VL
B24: dBBDu183H H93Q/dBBDu072L (antibody, name in Kabat numbering, V domains shown)
VH: B1 VH with H99Q, N114G
VL: B1 VL
B25: dBBDu183H H96K/dBBDu072L (antibody, name in Kabat numbering, V domains shown)
VH: B1 VH with H102K, N114G
VL: B1 VL
B26: dBBDu183H H93F/dBBDu072L (antibody, name in Kabat numbering, V domains shown)
VH: B1 VH with H99F, N114G
VL: B1 VL
B27: dBBDu183H H96V/dBBDu072L (antibody, name in Kabat numbering, V domains shown)
VH: B1 VH with H102V, N114G
VL: B1 VL
B28: dBBDu183H H93R/dBBDu072L (antibody, name in Kabat numbering, V domains shown)
VH: B1 VH with H99R, N114G
VL: B1 VL
B29: dBBDu183H K64S/dBBDu072L (antibody, name in Kabat numbering, V domains shown)
VH: B1 VH with K67S, N114G
VL: B1 VL
B30: dBBDu183H K64F/dBBDu072L (antibody, name in Kabat numbering, V domains shown)
VH: B1 VH with K67F, N114G
VL: B1 VL
B31: dBBDu183H K64N/dBBDu072L (antibody, name in Kabat numbering, V domains shown)
VH: B1 VH with K67N, N114G
VL: B1 VL
B32: dBBDu183H H93K/dBBDu072L (antibody, name in Kabat numbering, V domains shown)
VH: B1 VH with H99K, N114G
VL: B1 VL
B33: dBBDu183H H93N/dBBDu072L (antibody, name in Kabat numbering, V domains shown)
VH: B1 VH with H99N, N114G
VL: B1 VL
B34: dBBDu183H K64T/dBBDu072L (antibody, name in Kabat numbering, V domains shown)
VH: B1 VH with K67T, N114G
VL: B1 VL
B35: dBBDu183H G100hT/dBBDu072L (antibody, name in Kabat numbering, V domains shown)
VH: B1 VH with N114T
VL: B1 VL
B36: dBBDu183H H93E/dBBDu072L (antibody, name in Kabat numbering, V domains shown)
VH: B1 VH with H99E, N114G
VL: B1 VL
B37: dBBDu183H H93G/dBBDu072L (antibody, name in Kabat numbering, V domains shown)
VH: B1 VH with H99G, N114G
VL: B1 VL
B38: dBBDu183H H96G/dBBDu072L (antibody, name in Kabat numbering, V domains shown)
VH: B1 VH with H102G, N114G
VL: B1 VL
B39: dBBDu183H G100hR/dBBDu072L (antibody, name in Kabat numbering, V domains shown)
VH: B1 VH with N114R
VL: B1 VL
B40: dBBDu183H K64V/dBBDu072L (antibody, name in Kabat numbering, V domains shown)
VH: B1 VH with K67V, N114G
VL: B1 VL
B41: dBBDu183H G100hQ/dBBDu072L (antibody, name in Kabat numbering, V domains shown)
VH: B1 VH with N114Q
VL: B1 VL
B42: dBBDu183H K64Q/dBBDu072L (antibody, name in Kabat numbering, V domains shown)
VH: B1 VH with K67Q, N114G
VL: B1 VL
B43: dBBDu183H K64D/dBBDu072L (antibody, name in Kabat numbering, V domains shown)
VH: B1 VH with K67D, N114G
VL: B1 VL
B44: dBBDu183H H93Y/dBBDu072L (antibody, name in Kabat numbering, V domains shown)
VH: B1 VH with H99Y, N114G
VL: B1 VL
B45: dBBDu183H H93S/dBBDu072L (antibody, name in Kabat numbering, V domains shown)
VH: B1 VH with H99S, N114G
VL: B1 VL

Biological target: T1, Human CD3eg linker
Assay: SPR, vs unmutated H183/L072

Going from B1 to B2, the “fold change of affinity” value rises from 0.8 fold to 3.4 fold.

B3 and B4 are the same in “fold change of affinity” value: 0 fold for the first, 0 fold for the second.

Compared with B5, B6 is lower in “fold change of affinity” value: 0.9 fold for the first, 0 fold for the second.

B7 and B8 are the same in “fold change of affinity” value: 0 fold for the first, 0 fold for the second.

B9 and B10 are the same in “fold change of affinity” value: 0 fold for the first, 0 fold for the second.

B11 and B12 are the same in “fold change of affinity” value: 0 fold for the first, 0 fold for the second.

Compared with B13, B14 is lower in “fold change of affinity” value: 0.3 fold for the first, 0 fold for the second.

Compared with B15, B16 is lower in “fold change of affinity” value: 1 fold for the first, 0.2 fold for the second.

Compared with B17, B18 is higher in “fold change of affinity” value: 0.3 fold for the first, 1 fold for the second.

B19 and B20 are the same in “fold change of affinity” value: 0 fold for the first, 0 fold for the second.

First: B21
Second: B22
The “fold change of affinity” value of the first is higher: 1 fold for the first, 0 fold for the second.

First: B23
Second: B24
The “fold change of affinity” value of the first is higher: 1.1 fold for the first, 0 fold for the second.

Compared with B25, B26 is lower in “fold change of affinity” value: 0.6 fold for the first, 0 fold for the second.

Compared with B27, B28 is higher in “fold change of affinity” value: 0 fold for the first, 2.4 fold for the second.

First: B29
Second: B30
The “fold change of affinity” value of the first is lower: 1 fold for the first, 1.3 fold for the second.

Compared with B31, B32 is lower in “fold change of affinity” value: 1 fold for the first, 0.2 fold for the second.

Going from B33 to B34, the “fold change of affinity” value rises from 0 fold to 1.1 fold.

First: B35
Second: B36
The “fold change of affinity” value of the first is higher: 2.3 fold for the first, 0 fold for the second.

First: B37
Second: B38
The “fold change of affinity” value of the first is lower: 0 fold for the first, 0.2 fold for the second.

Compared with B39, B40 is higher in “fold change of affinity” value: 0.4 fold for the first, 1.1 fold for the second.

Compared with B41, B42 is higher in “fold change of affinity” value: 0.4 fold for the first, 1 fold for the second.

Going from B43 to B44, the “fold change of affinity” value falls from 1 fold to 0 fold.

In the case of B45, the “fold change of affinity” value is reported as 0 fold.

— patent US20210388087A1 (Chugai, published 2021)
